# From patent publication US20100331262A1 (KAGOSHIMA UNIVERSITY, published 2010)
# Molecular target: T1, D1 scFv
# T1 construct: also called clone D1 of WO 2005/105998
# Assay: phage panning on coated scFv, clones confirmed by phage ELISA
# T1 sequence (VH, as listed by the source, chain 1 of 2): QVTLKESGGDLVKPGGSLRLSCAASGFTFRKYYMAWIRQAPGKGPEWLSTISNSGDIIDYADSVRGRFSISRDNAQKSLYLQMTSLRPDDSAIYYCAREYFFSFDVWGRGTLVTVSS
# T1 sequence (VL, as listed by the source, chain 2 of 2): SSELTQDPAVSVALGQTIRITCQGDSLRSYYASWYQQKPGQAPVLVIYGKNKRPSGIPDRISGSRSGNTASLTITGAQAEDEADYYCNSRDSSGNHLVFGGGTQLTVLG
row,Binder,binding result
1,CQGHLPWMC [pepD1-C3],binds
2,"CYGTKPWMC (also called pepB6-C2, C5, C6, C7, C8, C9, C10, and C15; pepD1-C5, C7, and C20) [pepB7-C15]",binds
3,"CYGTEPWMC (also called pepD1-C13; pepD1-C2, C13) [pepD1-C2]",binds
4,CFGHEPWMC [pepD1-C18],binds
5,CFGHKPWMC [pepD1-C11],binds
6,"GSPFLDLLAPAA (also called pepD1-L9; pepD1-L5, L9) [pepD1-L5]",binds
7,CFGRLPWMC [pepD1-C8],binds
8,CFGSLPWMC [pepD1-C10],binds
9,GNTLLDTLVPLI [pepD1-L13],binds
10,SILDILSPRLAE [pepD1-L7],binds
11,NPLDFYAPSILP [pepD1-L20],binds
12,SSIIDILLPPIY [pepD1-L6],binds

# Molecular target: T2, B6 scFv
# T2 construct: also called clone B6 of WO 2005/105998
# T2 sequence (VH, as listed by the source, chain 1 of 2): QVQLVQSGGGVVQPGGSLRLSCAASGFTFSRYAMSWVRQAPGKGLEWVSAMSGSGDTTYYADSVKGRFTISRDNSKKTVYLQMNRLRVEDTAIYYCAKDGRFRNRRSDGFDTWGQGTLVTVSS
# T2 sequence (VL, as listed by the source, chain 2 of 2): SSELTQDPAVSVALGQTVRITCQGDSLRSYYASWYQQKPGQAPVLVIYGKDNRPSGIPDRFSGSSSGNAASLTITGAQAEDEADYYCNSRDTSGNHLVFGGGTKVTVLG
# Assay: as above
row,Binder,binding result
1,"CYGTKPWMC (also called pepB6-C2, C5, C6, C7, C8, C9, C10, and C15; pepD1-C5, C7, and C20) [pepB7-C15]",binds

# Molecular target: T3, B7 scFv
# T3 construct: also called clone B7 of WO 2005/105998
# T3 sequence (VH, as listed by the source, chain 1 of 2): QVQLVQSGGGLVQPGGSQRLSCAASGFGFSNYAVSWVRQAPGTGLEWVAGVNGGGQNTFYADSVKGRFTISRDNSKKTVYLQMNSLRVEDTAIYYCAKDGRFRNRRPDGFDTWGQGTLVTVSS
# T3 sequence (VL, as listed by the source, chain 2 of 2): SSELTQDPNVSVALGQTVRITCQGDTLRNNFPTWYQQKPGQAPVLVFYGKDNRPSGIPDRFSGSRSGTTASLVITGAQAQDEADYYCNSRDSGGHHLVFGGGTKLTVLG
# Assay: as above
row,Binder,binding result
1,"CYGTKPWMC (also called pepB6-C2, C5, C6, C7, C8, C9, C10, and C15; pepD1-C5, C7, and C20) [pepB7-C15]",binds

# Molecular target: T2, B6 scFv
# Assay: phage panning and phage ELISA on coated scFv
row,Binder,binding result
1,TSPILDVLTPPR [pepB6-L10],binds
2,GMLDIFAPIRHV [pepB6-L1],binds

# Molecular target: T4, Aβ oligomers or Aβ fibers formed 1.5 hours after the dissolution of Aβ1-42 (UniProt P05067 672-713)
# T4 construct: domain: Aβ1-42; Aggregated conformers of Aβ1-42 after 1.5 h at 40 µM in 20 mM phosphate buffer pH 7.0; The number of copies is not defined; also called Aβ conformers (Aβ oligomers and Aβ fibers)
# T4 sequence (P05067 672-713 limits assumed): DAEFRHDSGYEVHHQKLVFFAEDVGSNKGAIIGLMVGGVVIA
# Assay: precipitation with streptavidin-magnet beads, Western blot with anti-Aβ antibodies
row,Binder,binding result
1,GSGGGSCGYWRSEWGLCG (also called unrelated peptide) [unrelated control peptide (GSGGGSCGYWRSEWGLCG)],no binding
